# Measurements published in article PMC9482650, “Quantitative fragmentomics allow affinity mapping of interactomes” (Nature Communications, 2022).
# T1: APBA3_1, O96018
# T1 sequence (O96018 389-490, limits assumed, looked up): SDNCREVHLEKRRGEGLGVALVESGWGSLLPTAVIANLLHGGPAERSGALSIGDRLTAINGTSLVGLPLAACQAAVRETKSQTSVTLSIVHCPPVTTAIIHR
# T2: ARHGAP21, Q5T5U3
# T2 sequence (Q5T5U3 45-169, limits assumed, looked up): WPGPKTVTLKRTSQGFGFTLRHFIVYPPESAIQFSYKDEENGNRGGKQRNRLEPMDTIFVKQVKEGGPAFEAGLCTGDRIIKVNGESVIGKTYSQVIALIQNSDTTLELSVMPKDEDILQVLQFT
# T3: CARD11, Q9BXL7
# T3 sequence (Q9BXL7 662-765, limits assumed, looked up): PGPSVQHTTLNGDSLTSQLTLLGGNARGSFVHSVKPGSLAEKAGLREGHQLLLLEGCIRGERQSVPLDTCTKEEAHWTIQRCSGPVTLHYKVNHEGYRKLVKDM
# T4: DVL3, Q92997
# T4 sequence (Q92997 244-331, limits assumed, looked up): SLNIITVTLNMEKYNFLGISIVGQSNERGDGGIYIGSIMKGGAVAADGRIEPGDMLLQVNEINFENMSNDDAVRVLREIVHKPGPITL
# T5: MPDZ_10, O75970
# T5 sequence (O75970 1624-1722, limits assumed, looked up): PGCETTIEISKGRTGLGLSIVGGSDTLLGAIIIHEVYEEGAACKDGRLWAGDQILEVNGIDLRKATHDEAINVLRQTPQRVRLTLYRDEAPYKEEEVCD
# T6: MPP7, Q5T2T1
# T6 sequence (Q5T2T1 134-230, limits assumed, looked up): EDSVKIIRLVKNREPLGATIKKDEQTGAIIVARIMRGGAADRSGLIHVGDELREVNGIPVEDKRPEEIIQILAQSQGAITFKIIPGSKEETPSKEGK
# T7: NHERF3_4, Q5T2W1
# T7 sequence (Q5T2W1 373-468, limits assumed, looked up): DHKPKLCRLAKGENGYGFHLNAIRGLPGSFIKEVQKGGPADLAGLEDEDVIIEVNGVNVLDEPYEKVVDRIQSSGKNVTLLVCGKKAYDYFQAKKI
# T8: RADIL, Q96JH8
# T8 sequence (Q96JH8 971-1071, limits assumed, looked up): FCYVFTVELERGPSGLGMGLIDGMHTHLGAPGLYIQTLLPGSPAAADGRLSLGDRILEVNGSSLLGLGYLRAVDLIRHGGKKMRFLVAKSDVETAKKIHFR
# Biological target: T1, APBA3_1, O96018
# Assay: holdup assay
# Design: key: below the threshold = too weak to quantify, mostly under pKd 3.1 to 4
# Settings: plain residues with an end cap or a label only (N-terminal biotin on a linker: ado-ado)
row,Binder,pKd
1,"RALRASESGI [ADGRE5, P48960]",below the threshold
2,"TMQMSLKDLL [GLA, P06280]",below the threshold

# Biological target: T2, ARHGAP21, Q5T5U3
# Assay: holdup assay
# Design: key: below the threshold = too weak to quantify, mostly under pKd 3.1 to 4
# Settings: plain residues with an end cap or a label only (N-terminal biotin on a linker: ado-ado)
row,Binder,pKd
1,"RALRASESGI [ADGRE5, P48960]",4.03
2,"TMQMSLKDLL [GLA, P06280]",3.54

# Biological target: ARHGEF12, Q9NZN5-2
# Assay: holdup assay
# Design: key: below the threshold = too weak to quantify, mostly under pKd 3.1 to 4
# Settings: plain residues with an end cap or a label only (N-terminal biotin on a linker: ado-ado)
# ARHGEF12, Q9NZN5-2, sequence (Q9NZN5 other isoform, or with tags, fused parts or gaps): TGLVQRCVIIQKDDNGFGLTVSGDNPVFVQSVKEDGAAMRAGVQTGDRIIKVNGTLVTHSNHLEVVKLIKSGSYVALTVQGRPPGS
row,Binder,pKd
1,"RALRASESGI [ADGRE5, P48960]",below the threshold
2,"TMQMSLKDLL [GLA, P06280]",below the threshold

# Biological target: T3, CARD11, Q9BXL7
# Assay: holdup assay
# Design: key: below the threshold = too weak to quantify, mostly under pKd 3.1 to 4
# Settings: plain residues with an end cap or a label only (N-terminal biotin on a linker: ado-ado)
row,Binder,pKd
1,"RALRASESGI [ADGRE5, P48960]",below the threshold
2,"TMQMSLKDLL [GLA, P06280]",below the threshold

# Biological target: DLG2_2, Q15700
# Assay: holdup assay
# Design: key: below the threshold = too weak to quantify, mostly under pKd 3.1 to 4
# Settings: plain residues with an end cap or a label only (N-terminal biotin on a linker: ado-ado)
# DLG2_2, Q15700, sequence (Q15700 189-283): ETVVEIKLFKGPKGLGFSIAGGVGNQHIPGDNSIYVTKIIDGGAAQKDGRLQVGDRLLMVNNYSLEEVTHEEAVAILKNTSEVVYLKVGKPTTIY
row,Binder,pKd
1,"RALRASESGI [ADGRE5, P48960]",below the threshold
2,"TMQMSLKDLL [GLA, P06280]",3.62

# Biological target: DLG4_1, P78352
# Assay: holdup assay
# Design: key: below the threshold = too weak to quantify, mostly under pKd 3.1 to 4
# Settings: plain residues with an end cap or a label only (N-terminal biotin on a linker: ado-ado)
# DLG4_1, P78352, sequence (P78352 62-152): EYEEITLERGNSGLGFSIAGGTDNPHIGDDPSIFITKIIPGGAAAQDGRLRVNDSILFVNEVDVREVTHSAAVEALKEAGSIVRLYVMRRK
row,Binder,pKd
1,"RALRASESGI [ADGRE5, P48960]",below the threshold
2,"TMQMSLKDLL [GLA, P06280]",below the threshold

# Biological target: T4, DVL3, Q92997
# Assay: holdup assay
# Design: key: below the threshold = too weak to quantify, mostly under pKd 3.1 to 4
# Settings: plain residues with an end cap or a label only (N-terminal biotin on a linker: ado-ado)
row,Binder,pKd
1,"RALRASESGI [ADGRE5, P48960]",below the threshold
2,"TMQMSLKDLL [GLA, P06280]",3.6

# Biological target: FRMPD2_3, Q68DX3
# Assay: holdup assay
# Design: key: below the threshold = too weak to quantify, mostly under pKd 3.1 to 4
# Settings: plain residues with an end cap or a label only (N-terminal biotin on a linker: ado-ado)
# FRMPD2_3, Q68DX3, sequence (Q68DX3 1073-1166): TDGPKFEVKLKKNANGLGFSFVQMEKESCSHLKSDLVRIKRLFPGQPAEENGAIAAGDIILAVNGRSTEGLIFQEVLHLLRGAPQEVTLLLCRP
row,Binder,pKd
1,"RALRASESGI [ADGRE5, P48960]",below the threshold
2,"TMQMSLKDLL [GLA, P06280]",3.58

# Biological target: FRMPD4, Q14CM0
# Assay: holdup assay
# Design: key: below the threshold = too weak to quantify, mostly under pKd 3.1 to 4
# Settings: plain residues with an end cap or a label only (N-terminal biotin on a linker: ado-ado)
# FRMPD4, Q14CM0, sequence (Q14CM0 67-160): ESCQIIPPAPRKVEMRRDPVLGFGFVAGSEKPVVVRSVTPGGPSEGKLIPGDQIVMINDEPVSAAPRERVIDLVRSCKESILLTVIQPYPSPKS
row,Binder,pKd
1,"RALRASESGI [ADGRE5, P48960]",below the threshold
2,"TMQMSLKDLL [GLA, P06280]",3.67

# Biological target: GORASP1, Q9BQQ3
# Assay: holdup assay
# Design: key: below the threshold = too weak to quantify, mostly under pKd 3.1 to 4
# Settings: plain residues with an end cap or a label only (N-terminal biotin on a linker: ado-ado)
# GORASP1, Q9BQQ3, sequence (Q9BQQ3 1-208): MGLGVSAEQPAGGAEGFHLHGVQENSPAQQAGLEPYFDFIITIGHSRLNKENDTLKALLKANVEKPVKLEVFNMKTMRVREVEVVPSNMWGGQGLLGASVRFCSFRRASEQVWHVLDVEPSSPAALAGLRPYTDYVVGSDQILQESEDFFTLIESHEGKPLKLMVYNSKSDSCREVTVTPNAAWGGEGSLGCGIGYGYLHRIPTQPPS
row,Binder,pKd
1,"RALRASESGI [ADGRE5, P48960]",below the threshold
2,"TMQMSLKDLL [GLA, P06280]",3.61

# Biological target: GRIP2_5, Q9C0E4
# Assay: holdup assay
# Design: key: below the threshold = too weak to quantify, mostly under pKd 3.1 to 4
# Settings: plain residues with an end cap or a label only (N-terminal biotin on a linker: ado-ado)
# GRIP2_5, Q9C0E4, sequence (Q9C0E4 544-642): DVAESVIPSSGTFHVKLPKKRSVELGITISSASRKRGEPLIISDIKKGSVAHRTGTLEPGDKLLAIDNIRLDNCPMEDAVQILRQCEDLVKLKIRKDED
row,Binder,pKd
1,"RALRASESGI [ADGRE5, P48960]",below the threshold
2,"TMQMSLKDLL [GLA, P06280]",3.51

# Biological target: Inadl_10, Q8NI35
# Assay: holdup assay
# Design: key: below the threshold = too weak to quantify, mostly under pKd 3.1 to 4
# Settings: plain residues with an end cap or a label only (N-terminal biotin on a linker: ado-ado)
# Inadl_10, Q8NI35, sequence (Q8NI35 1673-1763): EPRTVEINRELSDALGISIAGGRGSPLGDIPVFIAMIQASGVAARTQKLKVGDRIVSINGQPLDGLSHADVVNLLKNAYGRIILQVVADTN
row,Binder,pKd
1,"RALRASESGI [ADGRE5, P48960]",below the threshold
2,"TMQMSLKDLL [GLA, P06280]",below the threshold

# Biological target: Inadl_6, Q8NI35
# Assay: holdup assay
# Design: key: below the threshold = too weak to quantify, mostly under pKd 3.1 to 4
# Settings: plain residues with an end cap or a label only (N-terminal biotin on a linker: ado-ado)
# Inadl_6, Q8NI35, sequence (Q8NI35 1058-1167): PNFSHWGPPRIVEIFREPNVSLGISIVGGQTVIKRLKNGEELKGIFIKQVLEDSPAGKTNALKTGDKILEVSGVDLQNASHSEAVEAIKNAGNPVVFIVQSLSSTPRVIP
row,Binder,pKd
1,"RALRASESGI [ADGRE5, P48960]",below the threshold
2,"TMQMSLKDLL [GLA, P06280]",below the threshold

# Biological target: Inadl_9, Q8NI35
# Assay: holdup assay
# Design: key: below the threshold = too weak to quantify, mostly under pKd 3.1 to 4
# Settings: plain residues with an end cap or a label only (N-terminal biotin on a linker: ado-ado)
# Inadl_9, Q8NI35, sequence (Q8NI35 1530-1615): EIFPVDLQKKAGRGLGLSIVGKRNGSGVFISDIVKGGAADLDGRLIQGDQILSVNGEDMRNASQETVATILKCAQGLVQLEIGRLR
row,Binder,pKd
1,"RALRASESGI [ADGRE5, P48960]",below the threshold
2,"TMQMSLKDLL [GLA, P06280]",below the threshold

# Biological target: LDB3, O75112
# Assay: holdup assay
# Design: key: below the threshold = too weak to quantify, mostly under pKd 3.1 to 4
# Settings: plain residues with an end cap or a label only (N-terminal biotin on a linker: ado-ado)
# LDB3, O75112, sequence (O75112 1-94): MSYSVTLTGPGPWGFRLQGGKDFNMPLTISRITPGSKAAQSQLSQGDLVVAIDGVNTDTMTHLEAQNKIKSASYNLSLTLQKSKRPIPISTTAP
row,Binder,pKd
1,"RALRASESGI [ADGRE5, P48960]",below the threshold
2,"TMQMSLKDLL [GLA, P06280]",below the threshold

# Biological target: LNX1_1, Q8TBB1
# Assay: holdup assay
# Design: key: below the threshold = too weak to quantify, mostly under pKd 3.1 to 4
# Settings: plain residues with an end cap or a label only (N-terminal biotin on a linker: ado-ado)
# LNX1_1, Q8TBB1, sequence (Q8TBB1 261-371): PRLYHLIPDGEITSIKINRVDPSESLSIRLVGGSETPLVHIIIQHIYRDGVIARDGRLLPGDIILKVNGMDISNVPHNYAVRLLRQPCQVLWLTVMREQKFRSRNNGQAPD
row,Binder,pKd
1,"RALRASESGI [ADGRE5, P48960]",below the threshold
2,"TMQMSLKDLL [GLA, P06280]",3.64

# Biological target: LNX1_2, Q8TBB1
# Assay: holdup assay
# Design: key: below the threshold = too weak to quantify, mostly under pKd 3.1 to 4
# Settings: plain residues with an end cap or a label only (N-terminal biotin on a linker: ado-ado)
# LNX1_2, Q8TBB1, sequence (Q8TBB1 371-470): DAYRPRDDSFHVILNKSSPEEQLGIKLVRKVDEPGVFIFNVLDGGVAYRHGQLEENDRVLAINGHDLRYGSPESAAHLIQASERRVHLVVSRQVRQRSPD
row,Binder,pKd
1,"RALRASESGI [ADGRE5, P48960]",below the threshold
2,"TMQMSLKDLL [GLA, P06280]",below the threshold

# Biological target: MAGI1_1, Q96QZ7
# Assay: holdup assay
# Design: key: below the threshold = too weak to quantify, mostly under pKd 3.1 to 4
# Settings: plain residues with an end cap or a label only (N-terminal biotin on a linker: ado-ado)
# MAGI1_1, Q96QZ7, sequence (Q96QZ7 1-106): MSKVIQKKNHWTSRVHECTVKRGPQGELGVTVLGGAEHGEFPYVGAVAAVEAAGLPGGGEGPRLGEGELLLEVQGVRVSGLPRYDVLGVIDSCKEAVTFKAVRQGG
row,Binder,pKd
1,"RALRASESGI [ADGRE5, P48960]",below the threshold
2,"TMQMSLKDLL [GLA, P06280]",below the threshold

# Biological target: MAGI2_2, Q86UL8
# Assay: holdup assay
# Design: key: below the threshold = too weak to quantify, mostly under pKd 3.1 to 4
# Settings: plain residues with an end cap or a label only (N-terminal biotin on a linker: ado-ado)
# MAGI2_2, Q86UL8, sequence (Q86UL8 410-522): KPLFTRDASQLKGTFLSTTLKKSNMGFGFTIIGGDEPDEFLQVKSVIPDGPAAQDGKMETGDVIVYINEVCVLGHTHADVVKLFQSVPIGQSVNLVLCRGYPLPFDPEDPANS
row,Binder,pKd
1,"RALRASESGI [ADGRE5, P48960]",below the threshold
2,"TMQMSLKDLL [GLA, P06280]",below the threshold

# Biological target: MAGI2_3, Q86UL8
# Assay: holdup assay
# Design: key: below the threshold = too weak to quantify, mostly under pKd 3.1 to 4
# Settings: plain residues with an end cap or a label only (N-terminal biotin on a linker: ado-ado)
# MAGI2_3, Q86UL8, sequence (Q86UL8 600-682): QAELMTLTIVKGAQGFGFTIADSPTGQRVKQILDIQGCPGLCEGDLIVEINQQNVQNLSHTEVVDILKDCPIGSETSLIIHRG
row,Binder,pKd
1,"RALRASESGI [ADGRE5, P48960]",below the threshold
2,"TMQMSLKDLL [GLA, P06280]",below the threshold

# Biological target: MAGI2_4, Q86UL8
# Assay: holdup assay
# Design: key: below the threshold = too weak to quantify, mostly under pKd 3.1 to 4
# Settings: plain residues with an end cap or a label only (N-terminal biotin on a linker: ado-ado)
# MAGI2_4, Q86UL8, sequence (Q86UL8 772-865): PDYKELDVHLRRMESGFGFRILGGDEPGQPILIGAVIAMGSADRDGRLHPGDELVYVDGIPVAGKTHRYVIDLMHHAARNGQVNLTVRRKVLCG
row,Binder,pKd
1,"RALRASESGI [ADGRE5, P48960]",below the threshold
2,"TMQMSLKDLL [GLA, P06280]",3.53

# Biological target: MAGI3_2, Q5TCQ9
# Assay: holdup assay
# Design: key: below the threshold = too weak to quantify, mostly under pKd 3.1 to 4
# Settings: plain residues with an end cap or a label only (N-terminal biotin on a linker: ado-ado)
# MAGI3_2, Q5TCQ9, sequence (Q5TCQ9 398-503): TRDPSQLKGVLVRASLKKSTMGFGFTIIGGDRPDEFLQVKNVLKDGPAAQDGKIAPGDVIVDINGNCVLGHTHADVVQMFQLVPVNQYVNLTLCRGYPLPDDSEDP
row,Binder,pKd
1,"RALRASESGI [ADGRE5, P48960]",below the threshold
2,"TMQMSLKDLL [GLA, P06280]",below the threshold

# Biological target: T5, MPDZ_10, O75970
# Assay: holdup assay
# Design: key: below the threshold = too weak to quantify, mostly under pKd 3.1 to 4
# Settings: plain residues with an end cap or a label only (N-terminal biotin on a linker: ado-ado)
row,Binder,pKd
1,"RALRASESGI [ADGRE5, P48960]",below the threshold
2,"TMQMSLKDLL [GLA, P06280]",below the threshold

# Biological target: T6, MPP7, Q5T2T1
# Assay: holdup assay
# Design: key: below the threshold = too weak to quantify, mostly under pKd 3.1 to 4
# Settings: plain residues with an end cap or a label only (N-terminal biotin on a linker: ado-ado)
row,Binder,pKd
1,"RALRASESGI [ADGRE5, P48960]",below the threshold
2,"TMQMSLKDLL [GLA, P06280]",below the threshold

# Biological target: T7, NHERF3_4, Q5T2W1
# Assay: holdup assay
# Design: key: below the threshold = too weak to quantify, mostly under pKd 3.1 to 4
# Settings: plain residues with an end cap or a label only (N-terminal biotin on a linker: ado-ado)
row,Binder,pKd
1,"RALRASESGI [ADGRE5, P48960]",below the threshold
2,"TMQMSLKDLL [GLA, P06280]",below the threshold

# Biological target: NOS1, P29475
# Assay: holdup assay
# Design: key: below the threshold = too weak to quantify, mostly under pKd 3.1 to 4
# Settings: plain residues with an end cap or a label only (N-terminal biotin on a linker: ado-ado)
# NOS1, P29475, sequence (P29475 9-101): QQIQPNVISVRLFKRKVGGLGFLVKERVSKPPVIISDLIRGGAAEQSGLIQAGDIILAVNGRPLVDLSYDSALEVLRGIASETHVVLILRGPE
row,Binder,pKd
1,"RALRASESGI [ADGRE5, P48960]",below the threshold
2,"TMQMSLKDLL [GLA, P06280]",3.73

# Biological target: PDZRN4_1, Q6ZMN7
# Assay: holdup assay
# Design: key: below the threshold = too weak to quantify, mostly under pKd 3.1 to 4
# Settings: plain residues with an end cap or a label only (N-terminal biotin on a linker: ado-ado)
# PDZRN4_1, Q6ZMN7, sequence (Q6ZMN7 213-318): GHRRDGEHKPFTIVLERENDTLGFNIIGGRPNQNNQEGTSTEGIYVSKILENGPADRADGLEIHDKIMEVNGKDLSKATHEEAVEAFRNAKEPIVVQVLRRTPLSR
row,Binder,pKd
1,"RALRASESGI [ADGRE5, P48960]",below the threshold
2,"TMQMSLKDLL [GLA, P06280]",below the threshold

# Biological target: PTPN3, P26045
# Assay: holdup assay
# Design: key: below the threshold = too weak to quantify, mostly under pKd 3.1 to 4
# Settings: plain residues with an end cap or a label only (N-terminal biotin on a linker: ado-ado)
# PTPN3, P26045, sequence (P26045 505-587): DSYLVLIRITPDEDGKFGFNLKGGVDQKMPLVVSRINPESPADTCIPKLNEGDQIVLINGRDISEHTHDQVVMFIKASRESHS
row,Binder,pKd
1,"RALRASESGI [ADGRE5, P48960]",4.13
2,"TMQMSLKDLL [GLA, P06280]",4.07

# Biological target: T8, RADIL, Q96JH8
# Assay: holdup assay
# Design: key: below the threshold = too weak to quantify, mostly under pKd 3.1 to 4
# Settings: plain residues with an end cap or a label only (N-terminal biotin on a linker: ado-ado)
row,Binder,pKd
1,"RALRASESGI [ADGRE5, P48960]",below the threshold
2,"TMQMSLKDLL [GLA, P06280]",below the threshold

# Biological target: SCRIB_3, Q14160
# Assay: holdup assay
# Design: key: below the threshold = too weak to quantify, mostly under pKd 3.1 to 4
# Settings: plain residues with an end cap or a label only (N-terminal biotin on a linker: ado-ado)
# SCRIB_3, Q14160, sequence (Q14160 999-1103): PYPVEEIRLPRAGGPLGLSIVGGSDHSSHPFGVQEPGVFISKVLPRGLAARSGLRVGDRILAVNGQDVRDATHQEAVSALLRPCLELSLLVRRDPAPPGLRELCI
row,Binder,pKd
1,"RALRASESGI [ADGRE5, P48960]",below the threshold
2,"TMQMSLKDLL [GLA, P06280]",below the threshold
